Measurements reported in a protein production outcome set (Wang et al. 2014).

Assay: label from the status in PepcDB records

Sequence	protein production
MDIMNVYKRGNTFQYDFYFKGKRYRKSGYLTKRDAQIAMNIKLNDLLEGYDTDNNLTFVDFYYRWLEITKLDIINDTSYKRYITAIKAFKDCFGNKLISDIDSLSYQKFLKDYGRGHFLNNGQLRPRTSNTVSKMNNCLKQAFESAVEQGYIKKNPAKNAKPFGLKSSQSIDDKFMSITQMKNLIHYVKKNDALSHLCIYILIITGSRFKPVQHLRYEDLNFKKSCIHLNDTKNKYSKRNVKVRIKDLEYIQSVINKHPINQNGYIFHNFINFISYSAINDVLVRFCLKYKYDKYTLKSLRHTHCSYLLAKGISIQYISKRLGHADIHTTLKIYSHLIKEFEDSENSLIEKNLNDLFSD	failed
MDKHNEEHIYVAIDLKSFYASVECRERGKDALTTNLVVADPTRTEKTICLAVSPALKAYGIPGRARLFEVVQRVKEVNKLRLSKLMASGHAAGTVERRKKYVTEIDIAENDITESTMAGFDYASYNANLLDAHPEYELTYIVAPPRMALYMDYSTRIYNIYLKYIAPEDISVYSIDEVFMDVTHYLRTYHMTARELASKMIDDVLKDTGITATCGIGTNLYLCKIAMDIMAKHAMPDERGVRIAELNENSYRRKLWDHRPITDFWRVGAGYAKKLEAAGMYTMGDVARCSTGGSNDFYNEEKLYKMFGINAELLIDHAWGYEPVTIADIKAYRPQTNSISSGQVLQEPYDYEKTKLIVREMTDLLVLDLVDKRLVTDQIVLTIGYDIANLSNKADSCLGNNYDHAVNNKGRDSIGGKKGTHRDYTGEITIDRYGRKVPKHAHGTANLGRYTSSTRIIMDAVMELYDRIIDPSLLTRRITVVANRVCDESKVQESEQFEQLDLFTDYQARAKEKKKEDEALSKERKLQEAMISVKKKYGKNAMLKGMNLEEGATTISRNNQIGGHKA	failed
MDKIGMTNQITGVISKFDTNIRTIVLNAKDGIFTCNLMIFVKNTDKLTTLMDKLRKVQGLEHHHHHH	failed
MDKIHAMQLFIRVADLESFSRAAETLALPKGSVSRQIQALESHLGVRLLHRTTRRVQLTQDGMVYYERAKDLLSNLDELDGMFQHDPASISGRLRVDMPVGFAKKMVIPHLPTFLQQYPGIELELSSSDRQVDVIREGFDCVVRVGALKDSGLIARPLGKLTQINCASPDYLARFGYPQSLEDLADHALIHYASTLGVRPPGFEVMIDGAVRWVKTGGILTVNSTETYQAACIAGLGIIQVPRTGVREALRAGDLIEILPQYRAEPLPVSLIYPHRRNLSRRVNLFMEWLGGLMKAYVD	failed
MDKKAMWDRFYTENGSKGQFKNFEWFFGFPSVKDLVLPALQAMSCSHSGPLHILDMGCGTSALGPCIYSTSPCAVRVTCADISPVAVKLMEEHTKSTSTQPCNPSSALVFLELDCTQMTGHFKSRSLDLILDKGTTDALVRSKEGQVKAGQILRQSLQVLRPSGSFLQFSDEDPDARLIWLEREVQGAEVTADVGVQEIGELRGVSYFCYQISPRSRPHS	failed
MDKLRGMETFIAVVECGSFTGAASRLGLSAVMVGKYIAQLESQLATRLLERNTRRQSLTDAGRVYFDEAKRVMEQVSIAESAVERLRLAPAGTLRVSAPTSFGASVIAPLTATFLQAWPAVRVELDLTNRMVDLVDEGVDLAIRIGEIHQEDLVARYLAPYRMVICAAPAYLARYGTPGTPEDLTDHLCLSHTVWTARNEWRLPGVEGEVRWKRDAVLRCNDGYALRQAAIAGAGLLMQPEVLLADALASGSLVRVLEAWTPQPRPVHLLWRQDRRPLPKLTQFIAHLQQGMADALTTTRASE	failed
MDKNALRKQILQKRMALSTIEKSHLDQKINQKLVAFLTPKPCIKTIALYEPIKNEVTFVDFFFEFLKINQIRAVYPKVISDTEIIFIDQETNTFEPNQIDCFLIPLVGFNKDNYRLGFGKGYYDRYLMQLTRQQPKIGIAYSFQKGDFLADPWDVQLDLIINDE	not failed
MDKQSSAGGVKRSVPCESNEVNETMPETPTGDSDPQPAPKKMKTSESSTILVVRYRRNVKRTSPEELLNDHARENRINPLQMEEEEFMEIMVEIPAK	failed
MDKRRVRAIKTFGAAMETYLAHTRWADSTRAVRKHIIDRDILPVFQNRLLTEIQAEDLRILCNKVKERGAPATAVQIRDIVKQVYVYAIAHGEKVVNPADSVGPSSIALEHHHHHH	not failed
MDKTKRKMIYETFMLILILLSLALLPYRNNFTFILNWIIWVIFTLDYLVRLYRADNKWHYVKTHPFQLIAIIPFYGGFRAARIVSFVHLLSITAMGRRYIVPIYSFFRSNGLNRFLMIFVLLVIIIPVPMVFIEPEINNYPDALWWAIVTATTVGYGDIVPVTPIGRILASIMMLFGIAFIGMITSTITNFFRAKKPTNSSTQRANKITQLISETPDLTKEEIAVVEQFLTLRKKELADENTKSDSE	failed
MDKTQSYDIFLIAPPGLEQVLAEEATACGFDEPRVVPGGVETRGPWSEVMRANLVLRGAGRVLVRIGGFPAVHLAQLDKRARKFAWGDFLRPDRPIRVEAVSRKSKIYHAGAAKQRVERAITEELGAPISDEAEIRLMLRIERDFCTFSIDTSGEALHKRGHKEAVGKAPMRETMAALFLRQCGFDGAEPVLDPMCGSGSFVIEAAEWAAGLMPGRSRSFAFEQLAGFDAAQWQSMRNAAGAGGRPESLYSGSDRNAGAIDASRANATRAGVADFCAFHQRPVSDIRPPEGRPGLVIVNPPYGARIGDQARLRSLYGSLGKVLMDRFSGWRVGLITSEMSLARSTRLPFQAPGPVVDHGGIKVRLYQSVRLR	failed
MDKTYILPIPNEYQNLARELSMQSGKIYSKAVSFLKKINRKGLRIKQKTFYRYMEWWIHQKSFILHSQSKQAAYQQAWTNYTATLRKIKKAKKKNKNTSKIRLPYRNKKYNKVCFKDSAIKLEGDNLILVNMKGAERIVIDNVRIGIKPKYAELLYHADKGKYYVHVVVEIAKEQEAKKRSGKTIAIDLGVIHPMVCFDGNKVVVYNGGVLNSILRYRNKKQSLLQSKISGCQKGSKRRGKLQRAKTKLLRRLSNLIRDVLGKYTSHLIGYCVENGITTIVMGDVKGIRNSKKKSNKVASQKVHQWLFRKISKMIEQKAEFAGIEVVYVKENMTSQICPVCGSKNKPLDRNYECKSCGFRYHRDGVGAVNIYRKYTGESLVVGRLACPTGVRFKSHLRCPVEWNTHPWDKNCSTGKVA	failed
MDLCRSSILLLIIALLSPRTLSMRYELKSSKTKCIGEEIHENAMSIGKYFIVNPNEDNHPLPDSHKIIVKVMPPQGKNLHEADKVEAGQFSFTAYENGSYVACITAIDYKPETTLTIDFDWKTGVHSKEWTNVAKKSQVDMMEYQVKTLMDTVISIHEEMYYLREREEEMQELNRSTNSKMAWLSFGSLVVCLSVAGLQFWHLKTFFEKKKLI	failed
MDLGKPMKSVLVVALLVIFQVCLCQDEVTDDYIGDNTTVDYTLFESLCSKKDVRNFKAWFLPIMYSIICFVGLLGNGLVVLTYIYFKRLKTMTDTYLLNLAVADILFLLTLPFWAYSAAKSWVFGVHFCKLIFAIYKMSFFSGMLLLLCISIDRYVAIVQAVSAHRHRARVLLISKLSCVGIWILATVLSIPELLYSDLQRSSSEQAMRCSLITEHVEAFITIQVAQMVIGFLVPLLAMSFCYLVIIRTLLQARNFERNKAIKVIIAVVVVFIVFQLPYNGVVLAQTVANFNITSSTCELSKQLNIAYDVTYSLACVRCCVNPFLYAFIGVKFRNDLFKLFKDLGCLSQEQLRQWSSCRHIRRSSMSVEAETTTTFSP	failed
MDLIITFGLLTLVVLLEFIVVPAIILKRGTKFSTIYNYPIYIINSTEINAYSLTSVWGKFIVLTRGLVNGEDEEHIKAAIMHEVGHLKLNHHVKMSLYIISVIMVFTYLLGVNMLTLIPFALVALLVQRYLQRRLELGADRFALRFINKKMLEDLITKYDMKETTFLSTHPNIHVRLKNINE	failed
MDLLIALLPALFWGSVVLINVLVGGGPYNQIRGTTLGTLIIGIILLLTGNAKFDDLAVIIVGLISGAFWALGQGYQLKSISLIGVSKTMPISTGLQLVGTTLFSAIFLGEWSTGIQVTLGLVAMVLLVIGIALTSIKGKNEASGGNNKFGKAIPILIISTVGYVVYVVVAQIFGVDGMNALFFQSIGMAIGGLILSAKHETSVKSTMWNIIPGVIWGIGNLFMFYSQPKVGVATSFSFSQLLVIVSTLGGIFLLGERKDKRQMIGIWAGIVLIIIAAFILGNLKG	failed
MDLLSLLDINNTLVNIPIGGGYAMSWVEGFGTIFGLLCIWFASQEKTINYVFGLLNVTLFAVIFFQIQLYGLLLLQLFFFCANIYGWYAWTKPNSSGETLEVRWLSQSKLLAISGGSIAAIALLTIYIDPFFFSLATIAVDGMNLFGAELAEPVLAPDAFPFWDSTMTVLSIVAQILMTRKYVENWMLWIVINIISIGIYATQGVFAMSVQYSILMFIAANGAREWARTAKENINNKQVEKAIA	failed
MDLRIKNKAKKIKAVFFDIDDTLRIKDTGYMPDSIKKVFESLQEKDILTGIASGRAPYGVVPEIRQLNPDFFVTINGSYVINHKGEELSNDPIPKDIIEKYVVWCQEIGIEYGFAGKDKAVVSKRTELVDKALVPVYGFCPVEPDFYKNHEVYHMWTFEDVGDSLQLSDELKEDVRLVRWHENSSDVIKNGISKASGLAHVLKKVHLKPENVLFFGDGPNDMEIFDYVGLKVAMGNGHGDLKEKADFITKNVEEDGILYALEELGLVEKELQFPQLDVTNDDAPMALIKTNYGDLKVKLFPKQAPKTVANFVALAKDGYYDGVIFHRVIKDFMIQGGDPTGTGMGGESIYGERFEDEFSEELYNLRGALSMANAGPNTNGSQFFIVQNQNLPYSAKELERGGWPKEIAAAYAENGGTPHLDRRHSVFGQLVDQASYEALDNIANVDTGVADKPIDDIVIESIEVIDDENRG	failed
MDLVPLKLVTIVAESLLEKRLVEEVKRLGAKGYTITPARGEGSRGIRSVDWEGQNIRLETIVSEEVALRILQRLQEEYFPHYAVIAYVENVWVVRGEKYV	not failed
MDMLHAMRTFTRVVECGSFAAAANALDISAAQVSRIVAELENQLQTRLLHRTTRRLRMSEAGERFLERARQIMLLTEEAVGEARGAHLTPRGHLRLHCPHGMGLLLMPLVAGYNMLYPEVVIELTLSQRNPDPLAEGHDVVITVDGALPDSQLIAVPLGNIFSIPCAAPGYLDTHGVPERPEDLHGHRCLRMAYPMYEGDWVFPQGVDQCVIAPNDSFSTNVADAMLVASELGMGIGLLPFYTASEAIGQGRLCRLLAPYRLRESALYAMYPSRHYLDAKVRTWIDYLKEQLPALFEGHARVVDDARYWR	failed
MDMLKKRKLDENGIAMLHDGVSGSVSFRLVPQDARKITELFFADQLLDILQEAIVRHPDVLFFFF	failed
MDMRSHEMIERRREDNGNNNGGVVISNIISTNIDDNCNGNNNNTRVSCNSQTLDHHQSKSPSSFSISAAAKPTVRYRECLKNHAASVGGSVHDGCGEFMPSGEEGTIEALRCAACDCHRNFHRKEMDGVGSSDLISHHRHHHYHHNQYGGGGGRRPPPPNMMLNPLMLPPPPNYQPIHHHKYGMSPPGGGGMVTPMSVAYGGGGGGAESSSEDLNLYGQSSGEGAGAAAGQMAFSMSSSKKRFRTKFTTDQKERMMDFAEKLGWRMNKQDEEELKRFCGEIGVKRQVFKVWMHNNKNNAKKPPTPTTTL	failed
MDNDAAKKQLEFLKGGFKLLCQSGGAIFGDADFDGGNLEASEWIAMTEAQFLGGDYSEKDKLACVSGFFGGQAKFWFHKELSWIPFNSWSQVKDGLLLTFGNNRDKKRVLVELDLEMKHWIKDFDRKREPHKFLES	failed
